Target: T1, GST-tagged Shu (Shu-GST) (Drosophila, UniProt Q9W1I9 1-455)
T1 sequence (looked up): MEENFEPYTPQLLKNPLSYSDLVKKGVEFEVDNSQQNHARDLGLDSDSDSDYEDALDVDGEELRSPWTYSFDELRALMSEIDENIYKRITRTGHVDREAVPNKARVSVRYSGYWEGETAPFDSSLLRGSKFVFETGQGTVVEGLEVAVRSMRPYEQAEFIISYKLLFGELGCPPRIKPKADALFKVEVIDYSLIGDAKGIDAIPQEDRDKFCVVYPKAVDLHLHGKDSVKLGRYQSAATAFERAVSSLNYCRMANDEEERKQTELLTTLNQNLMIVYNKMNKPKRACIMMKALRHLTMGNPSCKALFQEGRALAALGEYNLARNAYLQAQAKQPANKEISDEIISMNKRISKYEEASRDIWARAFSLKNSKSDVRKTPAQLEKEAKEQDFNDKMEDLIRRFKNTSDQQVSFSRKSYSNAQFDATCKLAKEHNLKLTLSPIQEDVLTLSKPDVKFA
Assay: pull-down

pull-down efficiency relative to Armi WT: ~1.5 fold
B1: FLAG-tagged Armi S769I mutant, recombinant (natural protein, Drosophila, UniProt Q6J5K9 1-1188, looked up)
chain: MFTYVSKFFTNPDRNREDILESLDRENSFLDQKLMEEKMDQQLKANPNEINGVLSNKIAELTHGLSEMDVSKESSCTARKGVITSLDGDRGVIDKDVLFETKVAEDIILDLHVGCVVEYLTFTTGEAMRVVKVKSILEHSWEDTSQKEIEKAVDNLKNEKPTFFNTETRSVLGLISQRLASSIDVETEYGQLTVELDNIEMNFIPTNGDRVRLECNIQLDDGFVDKQGEILEVTKLFPTRIQEGEKCIVERVYVHMVVLGPETYILKTDLPTGTDLHLGDIVLADLIECQYSKFTRRAIKITPLEKNFGATKLTQQSSMGSSGSGKAVTVTGVNRFITAELWQKESVSLKLTNNLNRTLRLESITVCNDSESQLSVVSPLESKEISSGSEITVTFEIHTQFLGEAIEKYVLNFDLLKVRRVFTVIVCKTKEEVAEAEKRMIAAEALMAPGRNSQERSRFYANQVWCNKVDVIPGQQIVTKRRFVALRLGCFEVPKELRQICLTSERRQEMIKAIEQHYSFLTEPLSIKTYMHRFRLLLHLEEIECFVNFRNYDRDRAHFLRDGEFLTLQIENLAERRPSLVIGDTLRVINPWSDPDSQTTKSYEGIIHKVLFDRILLKFHSSFQEKYNGEDYRLEFYFSRYSFRKQHHAISKIVGVMGEDFLFPSKVTKRENPQLDVYMKDDDMYLYDSKLEWYNQSLNSIQKRAVFNILRGEAENIPYVLFGPPGSGKTMTLIETLLQLVRNLPGARILVGTPSNSSADLVTKRLIDIKALLQGDFIRLVSYNQVEKDLIPPEIMSYCATSDVGAVGSCEDKMMVTESGLKLRCQAKFIGTHRITISTCTTLGNFLQLGFPAGHFTHVLFDEAGQCTEPETMVPIVMLTKKRSQVVLSGDPRQLQSIVTSRIASKMGFSISFLERLLERSPYRKDLQRFPESSGYNPLVLTKLLYNYRALPSIMSIYSRLFYDDELIPVLSEKDSRESRLLSKLRCVFESEKDIPQAHGTFFYGIIGENRQNNDSPSWFNPQEVREVFLMTIALYRANVTADQIGIITPYQKQVKMLRSMFIGTDVVMPKIGSVEEFQGQERDIILISTVRSSEEILRMDARFSLGFVRCSKRLNVAVSRARAMMIIFGNPHLLAVDECWRQLILFCVKNNAYFGCDLPQMVINQKDEVPVCLETFVPSLNTTDDLN
